Results as given in US12497461B2, “Human NTCP-binding antibody capable of inhibiting infection of hepatitis B virus (HBV) to human hepatocytes” (priority 2019, dated 2025).

Assays:
pseudo-HBV (HBV/NL) = assay: Infection inhibitory activity test using pseudo-HBV with integrated NanoLuc gene (Example 1); type: cell-based, hepatitis B virus (HBV); conditions: pseudo-virus, FIG. 1A
Method: The culture supernatant of 61,500 hybridomas was allowed to react with B lymphoma cell line forcibly expressing hNTCP and a parent cell line, washed and stained with a fluorescence-labeled anti-mouse IgG antibody. Screening was carried out by FACS to obtain 700 hybridoma cell lines producing an antibody that binds to an NTCP. The positive-hybridoma culture supernatant was screened by an HBV inhibitory activity test using a pseudo-virus. […] Using the culture supernatant of each clone, the test was repeated. As is apparent from FIG. 1A, hybridoma clones producing an antibody, which lowers an HBV infection rate but not viability of cells, were obtained.
The clone-derived antibodies established were purified and the activities of them were checked again by a test for infection inhibitory activity using pseudo-HBV obtained by integrating a NanoLuc gene into the genome.

[1] = tested on: HBV / NTCP double mutant (PE276, 277AA); assay: HBV infection of cells expressing NTCP double mutant in the presence of antibody; type: cell-based, hepatitis B virus (HBV); conditions: FIG. 7
Excerpt: To establish NTCP expression cells, HepG2 cells or Huh7 cells were infected with a lentiviral vector having a nucleic acid encoding a wild-type NTCP or each of NTCP mutants. Forty-eight hours after infection, the cells were subjected to an immunofluorescence assay or a viral infection assay.

[2] = molecular target: T1, epitope region-containing peptide fragment (AFPPEVIGPLFFFPLLYMIFQLGEG-biotin) (Homo sapiens, UniProt Q14973); assay: Surface plasmon resonance assay (BIAcore) of antigen binding affinity; conditions: 25° C.; antibody immobilized on CM5 chip
T1 sequence (Q14973 273-297 limits assumed): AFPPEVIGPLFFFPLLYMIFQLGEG
Method: In short, a carboxymethylated dextran biosensor chip (CM5, BIAcore Inc.) was activated by N-ethyl-N′-(3-dimethylaminopropyl)-carbodiimide hydrochloride (EDC) and N-hydroxysuccinimide (NHS) in accordance with the provider's instruction. An anti-mouse IgG antibody was diluted with 10 mM sodium acetate (pH5.2) up to 30 μg/ml. The dilution was injected at a flow rate of 5 to 10 μl/minute such that the reaction unit (RU) of the protein bound became 9,000 to 14,000 RU. In contrast, an anti-human IgG antibody was diluted with 10 mM sodium acetate (pH5.0) up to 25 μg/ml. The diluted antibody was injected at a flow rate of 5 to 10 μl/minute such that the reaction unit (RU) of the protein bound became 9,000 to 14,000 RU. After injection of each of the anti IgG antibodies, 1 M ethanolamine was injected in order to block unreactive groups. For kinetic measurement, N6HB426 antibody diluted with a running buffer (HBS-P: 10 mM HEPES pH7.5, 150 mM NaCl, 0.005% NP40) up to 10 μg/ml was immobilized onto CM5 chip via the anti-mouse IgG antibody, in advance. To the chip, a solution of an epitope region-containing peptide fragment ([…]-biotin: SEQ ID NO: 24) diluted with the running buffers at different concentrations was added at 25° C. at a flow rate of 10 μl/minute for 2 minutes. In contrast, the recombinant N6HB426 human chimeric IgG4 antibody was diluted with the running buffer up to 10 μg/ml and then was immobilized onto a sensor chip (CM5) via the anti-human IgG antibody in advance. To the chip, a solution of an epitope region-containing peptide fragment diluted with the running buffers at different concentrations was added at 25° C. at a flow rate of 10 μl/minute for 2 minutes.
The refractive index of the solution varied in correlation to the mass of a chip surface changed when a peptide fragment molecule bound to N6HB426 antibody on the sensor chip, was monitored in real-time. Using simple one-to-one Langmuir binding model (BIAcore Evaluation software version 3.1) by fitting sensor grams of antigen-antibody association and dissociation at the same time, association rate (Ka) and dissociation rate (Kd) were calculated. A Kd/Ka ratio was calculated to obtain an equilibrium dissociation constant (KD).

human NTCP = molecular target: T2, human NTCP (Homo sapiens, UniProt Q14973); assay: In vitro bile acid ([3H]-taurocholic acid) uptake in human NTCP-expressing HepG2 (Example 1); type: cell-based
T2 construct: expressed in transfected cells; host or cells: HepG2 cells, lentiviral transduction
T2 sequence (Q14973 1-349): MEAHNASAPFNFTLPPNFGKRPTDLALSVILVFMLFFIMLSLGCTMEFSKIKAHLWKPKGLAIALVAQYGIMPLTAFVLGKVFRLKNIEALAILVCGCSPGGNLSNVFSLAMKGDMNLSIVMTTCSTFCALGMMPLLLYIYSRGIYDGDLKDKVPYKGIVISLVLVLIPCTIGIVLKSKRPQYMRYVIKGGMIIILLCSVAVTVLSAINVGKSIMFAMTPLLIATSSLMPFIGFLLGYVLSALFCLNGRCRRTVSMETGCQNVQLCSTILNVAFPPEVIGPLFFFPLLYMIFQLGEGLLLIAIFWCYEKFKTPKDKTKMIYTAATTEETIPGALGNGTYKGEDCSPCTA

B1: N6HB426-20 antibody: anti-human NTCP monoclonal antibody from a sub-clone of N6HB426 hybridoma; VH SEQ ID NO: 3, VL SEQ ID NO: 4 (antibody, V domains shown)
VH: QVQLQQSGAELVKPGASVKLSCKASDFTFTEYTIHWIKQMSGQGLEWIGWFYPGSGDIKYSEKFKDKATLTADKSSSTVYMELNRLTSEDSAVYFCARHMRDFRGFYYGRFYFDYWGQGTTLTVSS
VL: EIVLTQSPAIMSASPGEKVTITCRASSSVSSSYLHWYQQKSGVSPKLWIYSTSNLASGVPARFSGSGSGTSYSLTINSVEAEDAATYYCQQYSGYRWTFGGGTTLEIKRA
modifications: N6HB426 antibody heavy chain variable region; N6HB426 antiibody light chain variable region
HBV inhibitory activity of hybridoma culture supernatant (pseudo-HBV (HBV/NL)): comparable to preS1 peptide | inhibition of HBV infection of cells expressing double mutant (PE276, 277AA) [1]: failed to be inhibited | Ka (1/Ms) association rate [2]: 821.2 M⁻¹ s⁻¹ | Kd (1/s) dissociation rate [2]: 3.19e-08 s⁻¹ | inhibition of bile acid uptake (human NTCP; 1000 nM, 1 µM): 3% | inhibition of bile acid uptake (human NTCP; 1000 nM, listed as purified N6HB426 antibody, 1 µM): at most 2% | inhibition of bile acid uptake (human NTCP; at concentration required for inhibition of infection (IC50 20 to 30 nM)): virtually did not inhibit
